Results from paper PMC4383751 (Protein & Cell, 2015).

B1: PKM2^R399E (a dimeric mutant) (enzyme)
chain: not shown
B2: PKM2^K422R (a patient-derived mutation) (enzyme)
chain: not shown
B3: PKM2^K305Q (acetylation mimic of K305) (enzyme)
chain: not shown
B4: PKM2^Y105E (phosphorylation mimic of Y105) (enzyme)
chain: not shown

Assays:
[1] = biological target: the molecule itself; test: crystal structure; crystals grown at 18°C by hanging-drop vapor diffusion, protein 15-20 mg/mL, in the absence of FBP (malonate for K305Q, L-proline for Y105E)
[2] = biological target: the molecule itself; test: SEC; gel filtration on Superdex 200 10/300 GL, in the presence of FBP; similar protein concentrations and conditions for all proteins
[3] = biological target: the molecule itself; test: cell-based or functional assay

| Protein | stoichiometry N [1] | stoichiometry N [2] | normalized kcat/Km of pyruvate kinase activity (PKM2^WT as standard) in the presence of FBP [3] |
| --- | --- | --- | --- |
| B1 | 4 | – | – |
| B2 | – | 4 | – |
| B3 | 4 | 2 | 0.2 relative to kcat/Km of PKM2^WT |
| B4 | 4 | – | – |
